Laboratory results published in the DeepSol protein solubility set.

Assay: soluble on expression in E. coli; label from the status in PepcDB or PDB records
For “GMSYQNANYSAFYVSEPFSESNLGANSTHDFVYYNMLRMWKGEDNSFPFNDAHDKTYNVRDGSDWEKTLKPRLHTRLDNSKNIILFLSSITANSRALREEMNYGIGTKGLPVIVIYPDYDKKSDIVDSNGNFKKQIKDLWDKLPAFRDNMSSVATLHIPCTKSVIISALNNEDFMVNTMADAEKYYYKP”, the “soluble on expression in E. coli” value was “soluble”. For “MGHHHHHHSHNTALVLCPFKDSGCKHRCPKLAMARHVEESVKPHLAMMCALVSRQRQELQELRRELEELSVGSDGVLIWKIGSYGRRLQEAKAKPNLECFSPAFYTHKYGYKLQVSAFLNGNGSGEGTHLSLYIRVLPGAFDNLLEWPFARRVTFSLLDQSDPGLAKPQHVTETFHPDPNWKNFQKPGTWRGSLDESSLGFGYPKFISHQDIRKRNYVRDDAVFIRAAVELPRKILS”, the “soluble on expression in E. coli” value was “not soluble”. With “ALIIVSGSEGRIEKAQNIAQLLSSRGYICLAIAYFGLEGLPKHLKRIPLECLVEAKSYLRQYPQVDSERIGIYGRSKGAELVLAEESIFNDVQCLVLNSPSDVVDEGIIGKWNSHTSSWTHLQKELPYQKFRFRDYLFSKLFRKDFPKDCSARIDIGQMHSPILLLESTVDEIWDASSAIDDIVSHYKGHYITFKKYHETGHMLTVAYQPNHRYRKDWHLLMKESEDSWLATIHFFDRHLK” the “soluble on expression in E. coli” value was “not soluble”. For “MKEDKKVLHVANMTNGLIVYPDYDYIVYFPSSYTAAGTPLYFPEFAVPIDLIKALLEEKKVIMYDATVHENKELTDAFLKGVPTFLMALNRAIHGTKGLFEKLEKGYKVCPWQTPDIVQHAVYRLPKHYYKFLKKCVKLFAPEKRGKLWISIPENVELVVEKIDRRLNDNYEEIAKMIKEKKSIHTYRV”, the “soluble on expression in E. coli” value was “not soluble”. In the case of “LKKKVGIISLGCPKNLVDSEIMLGLLKKNDFEITSDSEEANVIIVNTCGFIESAKEESINTILEMANYKNKNCEMLIVAGCLAQRYKDEIIKEMPEVDAVVGVSGYDEIAKVIEEFYSKKNDKNDKEKAVFHKDTLSVEYLNNERLLSTNSGYAYLKISEGCDNRCTYCAIPYIRGPYRSRKMEDIISEAEFLAGKGVKEVILVAQDVTVYGKDLYGQKKLVELVREVSGIEGIEWIRLLYTYPEEIDEELIKEIANNEKVVKYLDIPIQHASDKILKLMGRRSTSEGIRNILDRLRAEVPDIVLRTSLIVGFPGEDEKDFKILYDFVRKYEFDRLGVFTYSREEGTPAYDLKPQIKKSVKESRRNDIMQLQKEIVQRKNESRLEKVYKTLVEGVSEDGIFYYGRTYAEAPDIDGSVYFTSAEPLKFGEFVNVKVLNIDDYDLIGEVINESSK”, the “soluble on expression in E. coli” value is reported as “soluble”. With “MAKEFGRPQRVAQEMQKEIALILQREIKDPRLGMMTTVSGVEMSRDLAYAKVYVTFLNDKDEDAVKAGIKALQEASGFIRSLLGKAMRLRIVPELTFFYDNSLVEGMRMSNLVTSVVKHDEERRVNPDDSKEDLEHHHHHH” the “soluble on expression in E. coli” value was “soluble”. With “MGSDKIHHHHHHMNRKGNLSMTTQLQHLTLPEDIQQKLLSYKEQPISPEFQSLIGTSGYEAEDEAILFDAIIALAMGKNVLLKGPTGSGKTKLAETLSSYFHKPMHSVNCSVDLDAEALVGYKTIENQSGQATIEFVSGPVTKAMKEGHFLYIDEINMAKPETLPILNGVLDYRKMMTNPFTGEVIRAKSGFGVIAAINEGYVGTVPLNEALKNRFVIIDVPYIKGELLKQVLMSQSALKDEKLIDRFITLSSDLIVQANNGQVSEEAASIRALIDTCDLAAYIPPRRAIERGIVEKLDDDREKAAVRNIAETLFE” the “soluble on expression in E. coli” value was “not soluble”. For “MGKRMVVVGGVAGGASAAAKAKRENPELEVVVYEKSGWVSYGACGLPYVLSGEIPRLERLVARTPEEFRKQGVLVRTRHEVVDVDYELRTLTVHDHAEGRTFQDRFDHLVLATGARPSLPPIPGTEQEGVYTLRTMEDGERLLKALPQARRAAILGAGYIGLEAAEAFRKRGLQVTLLEAKDRPLPHWDPEVGALLKEELERHGVEVWTGVKVEAFRGMGRVEAVETSEGVVPADLVLLATGIRPNTELAQAMGVALGPTGAIATDERMRTNLEGVYAAGDVAESFHRVLKRPYWLPLGDVANKHGRTAGSVIAGREARFLGVVGTAIFKAFDLAVATTGLSLEGALKEGFWAKKVFIQSRDGAHYYPGSGPLWVELVYEEGTGRLLGGAVVARGHGALRIDVLAALLHREGSVEDLLALDLAYAPPFSPVWDPLLIAAQQAR”, the “soluble on expression in E. coli” value was “soluble”. With “MGSDKIHHHHHHVACKPKEKPSSATSLTDDALMDTVQRRTFNYFWDAAEPNSGLARERYHMDGEYPAGGPEIVTSGGSGFGIMAILAGIDRGYVSREEGLRRMEKIVGFLEKADRFKGAYPHWWNGETGHVQPFGQKDNGGDLVETAFLMQGLLAVHQYYAEGSAEEKKLAGRIDKLWREVDWNWYRHGGQNVLYWHWSPEYGWEMNFPVHGYNECLIMYILAAASPTHGVPAAVYHEGWAQNGAIVSPHKVEGIELHLRYQGGEAGPLFWAQYSFLGLDPVGLKDEYCPSYFNEMRNLTLVNREYCIRNPKHYKGYGPDCWGLTASYSVDGYAAHGPLERDDRGVISPTAALSSIVYTPDQSLQVMHHLYEMGDKVFGPYGFYDAFSETADWYPKRYLAIDQGPIAVMIENYRTGLLWKLFMSHPDVQNGLKKLGFNVKK” the “soluble on expression in E. coli” value was “not soluble”. For “MGEEILTERNQLSRQDASCFRSPRSPLGRTDDAFFELDDDDDLSSPSVPGSPVDPPSISVPLPPKSAPPCPTQPAPLTNGDLYPTILSNGTPIPNGRITPALSTVSVSLIHEARLQQSLSTPCNGSEEEMHNGQVRKESEYRRFKSEGSTAGASLPAAEKTHMDELSPVDQRSTSGTARFLIQQDSVVNPSTKMSNTEQVAMMHTLKTKLSKYQAMMDKAFEEIAKVEDANIIEGCTIVRKLMRKVWNTPKVSADLANALCDYLRDRDYFDKLIKMFISPNTAACDQVRMECGKVLEECTSSANLEYIVNKSYTKKIMIVAMKLNKTPDQQRLSLSLIGNLFKHSNAVSLSLIETDVIDHIILTFKRAPECPDILRHAALALANILLYTCFEGKKKIIQKKIPEWLFFLASQADDVTRYYACIAVCTIVSVKEFEPLVRKSDTMKLVEPFLQVHDPATFARDYHKYAQGNTKEWLERLLPMLQPSRRREARSVAAFHFTLEATIKKEQNKLDVFQEIGAIQALKEVASSPDEVAAKFASEALTVIGEEVPYKLAQQVPGWTCADVQYWVKKIGFEEYVEKFAKQMVDGDLLLQLTENDLKHDVGMISGLHRKRFLRELQTLKVAADYSSVDESNLDNFLMGLSPELSVYTYQMLTNGVNRSLLSSLTDEMMQNACGITNPIHRLKLTQAFETAKHPDDVEVAMLSKQIDVFISYRRSTGNQLASLIKVLLQLRGYRVFIDVDKLYAGKFDSSLLKNIQAAKHFILVLTPNSLDRLLNDDNCEDWVHKELKCAFEHQKNIIPIFDTAFEFPTKEDQIPNDIRMITKYNGVKWVHDYQDACMAKVVRFITGELNRTTPTTKEMPSISRKTTQQRWQTTNTVSRTGPSRSIGGPRMEPPTPTFFSVTPTGSQERATSTRRKIQPSASTTSDRN”, the “soluble on expression in E. coli” value was “not soluble”. For “TSLFAQEIRLSKRHEEIVSQRLMLLQQMENKLGDQHTEKASQLQTVETAFKRNLSLLKDIEAAEKSLQTRIHPLPRPEVVSLETRYWASV”, the “soluble on expression in E. coli” value was “soluble”. In the case of “MANSMIFKAEGNQLIAERVFDAPRELVFKMFTEAEHLKNWWGPRGWDLTVCNIDFRPGGSWHFCMKCVDENQGDFYGYESWGKALYREIVDGEKIVYVDYFSDSEGNLSEEMPAAEITLTFIDLGGKTKIVNQVEYPSAEELQKGLDMGMEQGFTETWDRLVEYLQDIQLEHHHHHH”, the “soluble on expression in E. coli” value is reported as “not soluble”. For “MLAAWLGCVLPAGAGLPVETLRVPPGFRVELLTEAMPSAREMALSPAGILYVGSRTGKVYALPLQVPGATVRVVASGLEQPVGVAWRDGSLYVSAVSRVVRLDRIDSRLDDPPVPVVVSDRFPTETHHGWKFIAFGPDGKLYVPVGAPCNVCHRDEDRYANLMRMNADGSSLEVVARGIRNTVGFDWHPVTHELWFTDNGADMMGDDVPDDELNRITAPGQHFGYPFCHAGDVPDPEFGAGHPCSRYVPPVGKLGAHVAALGMRFYTGSNFPQAYRHNLFIAEHGSWNRSSKVGYRVVRVVLDAAGKVVRQEPFVEGWLRGERAWGRPVDVLVAPDGSLLVSDDYAGAVYRVRYTGKLEHHHHHH”, the “soluble on expression in E. coli” value was “soluble”. With “MIKKVLIANRGEIAVRIIRACKEMDIETVAIYSEADKESLHVQIADEAYCVGPTISKESYLNLTNIISVAKLTGCDAIHPGYGFLAENADFAELCRECNLIFIGPSPEAISKMGTKDVARDTMKEAGVPIVPGSQGIIKNTEEAIELANQIGYPVIIKATAGGGGKGIRVARHEEELVKGIQITQQEASTAFGNPGVYLEKYVEDFRHVEIQIMADTHGNAIHLGERDCTIQRRLQKLLEESPSPALDENVRKQMGEAAVKAAVAVDYTGAGTVEFIYEYKTKSFYFMEMNTRIQVEHPVTEMVTGVDLIKEQILVASGEKLSLQQEEVQFNGWAIECRINAENPAKKFMPSPGKVEMYLPPGGFGIRVDSAVYPGYSIPPFYDSMVAKLIVHGKTREEAIAKMKRALSEFVVEGVHTTIPFHLQLLDHPDFVKGEFNTKFLEEHELVTQ” the “soluble on expression in E. coli” value was “not soluble”. With “MTLVVPFDGSELAEAALVRAAEFGTVFEEDVLAVSVIRNGNAKYAREHDWIGPNEDFDLEAVVTSLHEQVIDLCPSSDFRHTVVDRYAPAGAVAKAIRKLAKREDASMVFIGSENAGHLVTSISSVGGSIASDDAYDVVIVRHR” the “soluble on expression in E. coli” value was “not soluble”. In the case of “MGAIKPLEDWLKNLGVKSDIRPNLLAGMEINDQICSVPLQTSNIGILERSKLFQAAGITEPPKTWEELRAVVKKSTIDKNGDHRPEQYGMLLTFGKGGWTVFSWLPFLFAAQGEIITDHYPSLSNPGAITALQFW”, the “soluble on expression in E. coli” value is reported as “not soluble”. In the case of “MEDLEHGVASNGLRYGFYRVESESAAICIAARGGSSFEPPGKYGIAHLTEHMIFRGNEYLQDGELDRAVELSGGEANAYTTRELILLCAEFVSDSLARVAEKLFLAVSARRLVEGEFERERAVVEAEVKGLISSPESRIYRLAHASAWGDSHLGRPIEGYPETVANISKADVEEYKASVFSPERMSLAIVGRISRLEALRVVKLFSQLEPGGKVREPETPEPRTTFLREERGIEAAYAALTLPLPPRSGLANVLARLRGVVFNLEAGATSILFKEVREERGLAYGFNVDVHITSWGSSMSLIVLEGNRDRVGELFDAMTRSLERALRGGYPESEWREGRRRLYRFYTRREAISNMERADALSAVILFHEKPFTLEDLVNQTLSSEWSLEEFLRLPRGLALIV”, the “soluble on expression in E. coli” value is reported as “not soluble”. In the case of “SNAGLIDESEQRLVDNIFEFEEKKIREIMVPRTDMVCIYESDSEEKILAILKEEGVTRYPVCRKNKDDILGFVHIRDLYNQKINENKIELEEILRDIIYISENLTIDKALERIRKEKLQLAIVVDEYGGTSGVVTIEDILEEIVGEIQ”, the “soluble on expression in E. coli” value is reported as “soluble”. With “MGSDKIHHHHHHMVLVVDYGSQYSRLITRRIRENEVYSEVVFPDDKVDLSKVDAVILSGGPRSVYEEDAPKLPEWFQEYKGPVLAICYGMQLIVKELGGEVRRGRGEYGRTLVELSRDPIFEGIPEKVHVWMSHGDEVVRLPEGFHPIAVSETGVIAAATDGKRFWLLQFHPEVHHTEYGDRMISNFLFNVCKLEKNWKIGDLVEEKIRHIKETIGNKKAILALSGGVDSSVAAVLVHRAIGKNLVCVFVDHGLLRKNEREEVERVFKEHFDMNLVVVDARKRFLEKLRGVTDPEKKRKIIGEEFIRVFEEEAKKHDVEFLVQGTIYSDVIESAASGKTTAKIKSHHNVGGLPEKMNLKLVEPLRDLFKDEVRKVGKYLGIPDRIINRHPFPGPGLAVRVLGEVTEEKLEILREADYIFIETLRKHDYYDKVWQAFAVLLPIKSVGVKGDARAYEYVVALRAVNSVEGMTADWSRIPHDILDEAARRITREVKGVGRVVYDITSKPPATIEWE” the “soluble on expression in E. coli” value was “not soluble”.
